Experiments:
MS2 coat protein [1] = experiment: apparent KD of MS2 coat protein, switch ON state; designed switch direction (-1 OFF switch, 1 ON switch): -1; higher = weaker reporter binding; conditions: FMN input: 0 or 200 uM; Eterna round: R93 (includes R88 designs)
Outline: (§1)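 Designed RNA switches, transcribed on-chip from Illumina sequencing clusters, were titrated with SNAP-549-labelled MS2 coat protein from 0.7 or 1.5 nM to 3 µM in twofold steps. The solution was 100 mM Tris-HCl pH 7.5, 80 mM KCl, 4 mM MgCl2, with constant ligand or without it. Apparent KD is the median over each design's normalised cluster binding-curve fits.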

MS2 coat protein [2] = experiment: apparent KD of MS2 coat protein, switch OFF state (with FMN for OFF switches, without FMN for ON switches); designed switch direction (-1 OFF switch, 1 ON switch): -1; higher = weaker reporter binding; conditions: FMN input: 0 or 200 uM; Eterna round: R93 (includes R88 designs)
Outline: as §1

ACCUGACAUGAGGAUCACCCAUGUCAGGAUAUGCAUCUUAGGAAAAAAAAACUAAGAUGCAGAAGGGACAUGGG [Design 2: Super Stable 2]
apparent KD of MS2 coat protein (MS2 coat protein [1]): 0.0254 µM | apparent KD of MS2 coat protein (MS2 coat protein [2]): 0.0275 µM

UAAAAACAUGAGGAUCACCCAUGUGAGGAUAUGUACGAAAUAAAUAAAAAAUAAAAGUACAGAAGGCACAAAAU [Mat - Exclusion 1 - Eli mod - D6]
apparent KD of MS2 coat protein (MS2 coat protein [1]): 0.037 µM | apparent KD of MS2 coat protein (MS2 coat protein [2]): 0.0526 µM

GUGUACAGAGGAUAUACGGGAGCUAGGAAACUAGCAACCUCACAUGAGGAUCACCCAUGUAGAAGGCUGUACAC [Ex2: 752]
apparent KD of MS2 coat protein (MS2 coat protein [1]): 0.159 µM | apparent KD of MS2 coat protein (MS2 coat protein [2]): 0.799 µM

AUAGGCCUAGGAUAUACAUGAGGAUCACCCAUGUAAACCGAUAGAUCACGGUAAACGUGUAGAAGGAGGAAUAA [JR_Exc003_Sub207]
apparent KD of MS2 coat protein (MS2 coat protein [1]): 0.0244 µM | apparent KD of MS2 coat protein (MS2 coat protein [2]): 0.0206 µM

AUCAUGUAAGGAUAUAAAAGAAAAGAAAAGAAAGAAAAGAAUUAGAAGGUACAUGAGGAUCACCCAUGUAAGAA [EteRNA is fun!]
apparent KD of MS2 coat protein (MS2 coat protein [1]): 0.0303 µM | apparent KD of MS2 coat protein (MS2 coat protein [2]): 0.0179 µM

CUUGUGUGAGGAUAUGUAAAAUGAAUAAGCAGUUCUAAAAGGCAGAAGGUACAUGAGGAUCACCCAUGUGAAAA [Inza]
apparent KD of MS2 coat protein (MS2 coat protein [1]): 0.0393 µM | apparent KD of MS2 coat protein (MS2 coat protein [2]): 0.0498 µM

GGUUGGCGAGGAUAUACAUGAGGAUCACCCAUGUGAGAGAAAAUAGUGAGAAAGAAAAGUAGAAGGCGCUGACG [salish99-ex3-42]
apparent KD of MS2 coat protein (MS2 coat protein [1]): 0.113 µM | apparent KD of MS2 coat protein (MS2 coat protein [2]): 0.235 µM

AAAAAACAUGAGGAUCACCCAUGUGAGGAUAUGAAAUUACUAAGACAACUGUAAUCAAUCAGAAGGCACAACAA [JR_Exc--1_Sub1207]
apparent KD of MS2 coat protein (MS2 coat protein [1]): 0.0236 µM | apparent KD of MS2 coat protein (MS2 coat protein [2]): 0.0386 µM

AAAAAGAGAGGAUAUACAUGAGGAUCACCCAUGUAAAAAAGAAGAAAGAAAAAAAAAUGUAGAAGGCUCAAAAA ['Exclusion 3']
apparent KD of MS2 coat protein (MS2 coat protein [1]): 0.0359 µM | apparent KD of MS2 coat protein (MS2 coat protein [2]): 0.0343 µM

AGAAAGUCAGGAUAUGUGGAAAAAAUAAAAAAAAUAAAAACACAGAAGGGACAUGAGGAUCACCCAUGUUAAGA [Mat - Exclusion 4 - Mayanna - D139]
apparent KD of MS2 coat protein (MS2 coat protein [1]): 0.0534 µM | apparent KD of MS2 coat protein (MS2 coat protein [2]): 0.0303 µM

AAGAUGUCAGGAUAUACAUAAAUAAAAAAUUAUGUUAAAACACAUGAGGAUCACCCAUGUAGAAGGGACAACAA [AJ 6]
apparent KD of MS2 coat protein (MS2 coat protein [1]): 0.0364 µM | apparent KD of MS2 coat protein (MS2 coat protein [2]): 0.0207 µM

GAAAACAGAGGAUAUACAAAAUUGACACGAAAGGUGCAAAAACAUGAGGAUCACCCAUGUAGAAGGCUGAAGAA [Meechl MS2 Ex2 3]
apparent KD of MS2 coat protein (MS2 coat protein [1]): 0.0253 µM | apparent KD of MS2 coat protein (MS2 coat protein [2]): 0.0211 µM

AGCACGUCAGGAUAUACGAAAAAAAAGGGUAAAAAAAACACACAUGAGGAUCACCCAUGUAGAAGGGACAAGCA [Diamond 94]
apparent KD of MS2 coat protein (MS2 coat protein [1]): 0.0668 µM | apparent KD of MS2 coat protein (MS2 coat protein [2]): 0.0868 µM

GAAAAUGGAGGAUAUACAUGAGGAUCACCCAUGUGUAAAAAAAAUUACACAAAAGAAAGUAGAAGGCCAUAAAA [Mat - Exclusion 3 - Mayanna mod - D107]
apparent KD of MS2 coat protein (MS2 coat protein [1]): 0.0664 µM | apparent KD of MS2 coat protein (MS2 coat protein [2]): 0.174 µM

GAAAGGUCAGGAUAUACGUUAUGCUAGUGCUCGUACUAUAAGUAGAAGGGACAUGAGGAUCACCCAUGUGAUAA [Kawasakiqro]
apparent KD of MS2 coat protein (MS2 coat protein [1]): 0.0452 µM | apparent KD of MS2 coat protein (MS2 coat protein [2]): 0.0583 µM

GAGGAGUCAGGAUAUCGGGAAAGGUUGAGGAAGAGAAGAAGCGAGAAGGGACAUGAGGAUCACCCAUGUAGAAG [Default title]
apparent KD of MS2 coat protein (MS2 coat protein [1]): 0.0467 µM | apparent KD of MS2 coat protein (MS2 coat protein [2]): 0.0403 µM

AGAAAACAUGAGGAUCACCCAUGUGAGGAUAUGUAAAAGAAAAGAAAAGAAAGAAGAAACAGAAGGCACAAGAA [Nynetjer]
apparent KD of MS2 coat protein (MS2 coat protein [1]): 0.0249 µM | apparent KD of MS2 coat protein (MS2 coat protein [2]): 0.0456 µM

AAGAACCUAGGAUAUACAAAAUAAAAGAAAAGAAAGAAAGAACAUGAGGAUCACCCAUGUAGAAGGAGGAAGAA [Renseneb]
apparent KD of MS2 coat protein (MS2 coat protein [1]): 0.0483 µM | apparent KD of MS2 coat protein (MS2 coat protein [2]): 0.0185 µM

AACUGGCUAGGAUAUACGUAAUAAAAUAUCAGUGAGAUUUCACAUGAGGAUCACCCAUGUAGAAGGAGCAAAAU [Esxereorar]
apparent KD of MS2 coat protein (MS2 coat protein [1]): 0.0245 µM | apparent KD of MS2 coat protein (MS2 coat protein [2]): 0.0166 µM

CUCUUGUCAGGAUAUCUAAGAAAAGAAAAGAAAGAAAAGAAAGAGAAGGGACAUGAGGAUCACCCAUGUAAGAA [EteRNA is fun!]
apparent KD of MS2 coat protein (MS2 coat protein [1]): 0.0463 µM | apparent KD of MS2 coat protein (MS2 coat protein [2]): 0.0424 µM

AAGAGUACAGGAUAUAUGUGAAAAGAGUCGAAAGACUCAAAACAUGAGGAUCACCCAUGUAGAAGGGUACUCAA [Diamond 74]
apparent KD of MS2 coat protein (MS2 coat protein [1]): 0.0525 µM | apparent KD of MS2 coat protein (MS2 coat protein [2]): 0.0273 µM

AAGAAGUGAGGAUAUUCGGAUAGGAAAACGAAAACCUAUCCGAAGAAGGCACAUGAGGAUCACCCAUGUAAAAA [Mat - Exaclusion 4 - Eli mod - D41]
apparent KD of MS2 coat protein (MS2 coat protein [1]): 0.0367 µM | apparent KD of MS2 coat protein (MS2 coat protein [2]): 0.0543 µM

AAAAUGUCAGGAUAUGUACGAAAAAAUAAAAAAAUAAAAGUACAGAAGGGACAUGAGGAUCACCCAUGUCAGGG [EX4 392: Minimal 4]
apparent KD of MS2 coat protein (MS2 coat protein [1]): 0.0979 µM | apparent KD of MS2 coat protein (MS2 coat protein [2]): 0.0746 µM

AAGAGUAGAGGAUAUACAUGAGGAUCACCCAUGUAAUCCAGAUAAGGAAGCAUGGCGUGUAGAAGGCUGCAUGA [MOD of Nando (MS2 Riboswitches- Exclusion 3)]
apparent KD of MS2 coat protein (MS2 coat protein [1]): 0.0282 µM | apparent KD of MS2 coat protein (MS2 coat protein [2]): 0.0352 µM

GAGUAAGGAGGAUAUACAUGAGGAUCACCCAUGUAAAAAGGGAAAGUAGAAAAGUAGAGUAGAAGGCCUAUAGA [JR_Exc003_Sub1702]
apparent KD of MS2 coat protein (MS2 coat protein [1]): 0.0704 µM | apparent KD of MS2 coat protein (MS2 coat protein [2]): 0.0583 µM

AAAAAGGUAGGAUAUACGAAAAAAAAAAGGUGAAAAAAAAAACAUGAGGAUCACCCAUGUAGAAGGACCAAAAA [Ex 2 sub 1 70% 3]
apparent KD of MS2 coat protein (MS2 coat protein [1]): 0.0365 µM | apparent KD of MS2 coat protein (MS2 coat protein [2]): 0.062 µM

AAGAAGUUAGGAUAUACAAAAUAAAAGAAAAGAAAGAAAGAACAUGAGGAUCACCCAUGUAGAAGGGACAAGAA [Nubkaure Amenemhat II]
apparent KD of MS2 coat protein (MS2 coat protein [1]): 0.0592 µM | apparent KD of MS2 coat protein (MS2 coat protein [2]): 0.0339 µM

AAAAAACAUGAGGAUCACCCAUGUAAGGAUAUGCUAGGAAAAAGAAAAAUAAAAACUAGCAGAAGGUACAUUAA [JL wbt mod 9]
apparent KD of MS2 coat protein (MS2 coat protein [1]): 0.0266 µM | apparent KD of MS2 coat protein (MS2 coat protein [2]): 0.0383 µM

AAGAAAGGAGGAUAUACAAGAAAGAAAGAAAAGAAAAGAAAACAUGAGGAUCACCCAUGUAGAAGGCCUUAGAA [EteRNA is fun!]
apparent KD of MS2 coat protein (MS2 coat protein [1]): 0.0269 µM | apparent KD of MS2 coat protein (MS2 coat protein [2]): 0.0178 µM

AGCUAGCGAGGAUAUACGAACAUGUCAAAAGACGUGAAGGGACAUGAGGAUCACCCAUGUAGAAGGCGCUAGCA [JL 74% mod 5]
apparent KD of MS2 coat protein (MS2 coat protein [1]): 0.0411 µM | apparent KD of MS2 coat protein (MS2 coat protein [2]): 0.144 µM

AGAAAGUCAGGAUAUCAGAAUAAGUCGAAAACGACUAGUAAUGAGAAGGGACAUGAGGAUCACCCAUGUAAGAA [Ex4 sub 3]
apparent KD of MS2 coat protein (MS2 coat protein [1]): 0.049 µM | apparent KD of MS2 coat protein (MS2 coat protein [2]): 0.0371 µM

AAGGUACGAGGAUAUACAUAGAUACAAACACAUGUGGAUGUACAUGAGGAUCACCCAUGUAGAAGGCGUAUAUA [AJ 22]
apparent KD of MS2 coat protein (MS2 coat protein [1]): 0.0586 µM | apparent KD of MS2 coat protein (MS2 coat protein [2]): 0.0847 µM

AGUCCAGAAGGAUAUACAUAGGUGAAAAAAAAAAAAAAACUACAUGAGGAUCACCCAUGUAGAAGGUCUGGACA [Mod of Brourd]
apparent KD of MS2 coat protein (MS2 coat protein [1]): 0.0586 µM | apparent KD of MS2 coat protein (MS2 coat protein [2]): 0.0255 µM

CCAAGACAUGAGGAUCACCCAUGUGAGGAUAUAGGUGUAUGCAAAAAAAAGUUAAAAACUAGAAGGCACAGAAA [JR_Exc001_Sub306]
apparent KD of MS2 coat protein (MS2 coat protein [1]): 0.0307 µM | apparent KD of MS2 coat protein (MS2 coat protein [2]): 0.025 µM

GAAAAGUGAGGAUAUACAUGAGGAUCACCCAUGUGUAUAAAAAAAUACACAAAAGAAAGUAGAAGGCACUAAAG [Mat - Exclusion 3 - Mayanna mod - D110]
apparent KD of MS2 coat protein (MS2 coat protein [1]): 0.0231 µM | apparent KD of MS2 coat protein (MS2 coat protein [2]): 0.0487 µM

AAGAACUCAGGAUAUACAUGAGGAUCACCCAUGUAAAAGAAAGAAAAGGGAAAGAAAAGUAGAAGGGAGAAGAA [Neferkheperure-waenre Amenhotep IV]
apparent KD of MS2 coat protein (MS2 coat protein [1]): 0.0327 µM | apparent KD of MS2 coat protein (MS2 coat protein [2]): 0.0362 µM

AAAACGUGAGGAUAUGCACCAAAAAAGGUAAAACGGGUACGACAUGAGGAUCACCCAUGUAGAAGGCACGAAAA [Frodo Flailing 10 - Jieux - Exclusion 2]
apparent KD of MS2 coat protein (MS2 coat protein [1]): 0.046 µM | apparent KD of MS2 coat protein (MS2 coat protein [2]): 0.107 µM

AAGAAGAUAGGAUAUACAAAAUAAAAGAAAAGAAAGAAAGAACAUGAGGAUCACCCAUGUAGAAGGAUCAAGAA [Sehetepibre Amenemhat I]
apparent KD of MS2 coat protein (MS2 coat protein [1]): 0.025 µM | apparent KD of MS2 coat protein (MS2 coat protein [2]): 0.0177 µM

AGAAAGUCAGGAUAUACGAAAGUGCGAAAGCACAAAAGGGAACAUGAGGAUCACCCAUGUAGAAGGGACAAGAA [Diamond 77]
apparent KD of MS2 coat protein (MS2 coat protein [1]): 0.0914 µM | apparent KD of MS2 coat protein (MS2 coat protein [2]): 0.17 µM

AUAAAUCGAGGAUAUACAUGAGGAUCACCCAUGUAAAAAAAAAAAAAAUCCUCAGGAAGUAGAAGGCGAAAUAA [JR_Exc003_Sub018]
apparent KD of MS2 coat protein (MS2 coat protein [1]): 0.0117 µM | apparent KD of MS2 coat protein (MS2 coat protein [2]): 0.0233 µM

From the supplement of paper PMC9170038
